Test results from publication PMC11369088.

Biological target: C-terminal FLAG-tag TEX264 (UniProt Q9Y6I9)
Assay: co-IP; FLAG co-IP of FLAG-tagged ER-phagy receptor from HEK293 Tg-NLuc cells in TNI buffer (50 mM Tris pH 7.5, 150 mM NaCl, 0.5% IGEPAL CA-630), four washes; Tg-NLuc on the resin read by nano-glo luciferase assay; against GFP control

Chain of UniProt Q9Y6I9 (Q9Y6I9 whole entry): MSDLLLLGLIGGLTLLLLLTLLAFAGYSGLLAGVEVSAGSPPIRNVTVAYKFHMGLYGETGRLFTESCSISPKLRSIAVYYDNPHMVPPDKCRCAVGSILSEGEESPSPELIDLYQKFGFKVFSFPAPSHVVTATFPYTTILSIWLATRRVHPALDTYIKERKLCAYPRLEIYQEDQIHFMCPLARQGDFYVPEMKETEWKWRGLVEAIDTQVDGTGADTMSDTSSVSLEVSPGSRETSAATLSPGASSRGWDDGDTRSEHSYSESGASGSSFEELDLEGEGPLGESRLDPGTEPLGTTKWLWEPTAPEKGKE

fold interaction against A2234D Tg: 2 fold
fold interaction against WT Tg: 3 fold
Substance: nanoluciferase-tagged thyroglobulin C1264R (C1264R Tg-NLuc), P01266 20-2768
